From US20240116985A1 (published 2024)
Starred links: 1 amine or outer side, 2 acyl side, 3 side chain; linkers in the order of their positions; H or OH if unused. Positions of bridges follow the written chain, without caps; N, C: chain ends. Non-standard residues stand in square brackets, D forms with d. Primed or numbered codes have the meaning given here. B5(4) = 2,2-bis(4-pentenyl)glycine = 2-amino-2-(pent-4-en-1-yl)hept-6-enoic acid (stitching residue), C=CCCCC(CCCC=C)(N[*:1])C(=O)[*:2]; B5(9) = 2-amino-2-(pent-4-en-1-yl)hept-6-enoic acid (2,2-bis(4-pentenyl)glycine), C=CCCCC(CCCC=C)(N[*:1])C(=O)[*:2]; 23FF = 2,3-difluoro-L-phenylalanine, O=C([C@H](Cc1cccc(F)c1F)N[*:1])[*:2]; Phe(3-CF3) = N[C@@H](Cc1cccc(C(F)(F)F)c1)C(=O)O; Phe(3-F) = N[C@@H](Cc1cccc(F)c1)C(=O)O; Bta = N[C@@H](Cc1csc2ccccc12)C(=O)O; αAllylPro = C=CC[C@@]1(C(=O)O)CCCN1; S8 = C=CCCCCCC[C@](C)(N)C(=O)O

T1: full-length beta-Catenin (Uniprot ID P35222) (Homo sapiens (Human), UniProt P35222 1-781)
T1 construct: also called bCat; B-Catenin
T1 sequence: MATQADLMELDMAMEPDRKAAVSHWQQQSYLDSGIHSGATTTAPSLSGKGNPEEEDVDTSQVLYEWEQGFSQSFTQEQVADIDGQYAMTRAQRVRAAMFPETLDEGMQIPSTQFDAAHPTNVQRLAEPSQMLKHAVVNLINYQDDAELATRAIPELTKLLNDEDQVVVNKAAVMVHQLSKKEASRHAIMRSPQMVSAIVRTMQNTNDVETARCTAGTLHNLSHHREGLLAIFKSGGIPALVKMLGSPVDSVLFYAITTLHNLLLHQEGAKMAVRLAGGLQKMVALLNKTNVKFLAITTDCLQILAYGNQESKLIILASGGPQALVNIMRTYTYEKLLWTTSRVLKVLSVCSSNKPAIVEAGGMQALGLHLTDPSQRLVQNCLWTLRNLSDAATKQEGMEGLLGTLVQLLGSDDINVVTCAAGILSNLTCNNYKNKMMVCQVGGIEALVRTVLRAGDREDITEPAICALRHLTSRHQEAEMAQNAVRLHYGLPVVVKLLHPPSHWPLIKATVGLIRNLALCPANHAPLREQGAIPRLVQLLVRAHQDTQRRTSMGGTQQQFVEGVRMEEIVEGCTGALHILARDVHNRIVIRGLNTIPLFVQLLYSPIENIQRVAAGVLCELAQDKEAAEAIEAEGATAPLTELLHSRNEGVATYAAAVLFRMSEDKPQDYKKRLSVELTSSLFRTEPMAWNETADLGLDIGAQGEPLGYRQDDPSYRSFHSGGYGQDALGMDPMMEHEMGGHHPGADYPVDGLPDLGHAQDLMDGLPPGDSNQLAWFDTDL


Biological target: T1, full-length beta-Catenin (Uniprot ID …)
Assay: fluorescence polarization competition; 10 nM full-length beta-catenin, competitor 10 nM 5FAM-TCF4(10-53)
Experimental: The plate was incubated protected from light for 60 minutes at 20° C. prior to read. Reads were performed on a CLARIOstar plate reader (BMG Labtech) in duplicate, and data were fitted to a 1:1 binding model with hill slope using an in-house script. All provided concentrations are final concentrations.

Binder | EC50
Ac-[αAllylPro]DA[B5(4)]DEAAFA[S8][Phe(3-F)][Bta]Q-NH2 (staple 1-4, 4-11, Stapled peptide composition (olefin metathesis)) [I-372] | 2090 nM
Ac-[αAllylPro]DA[B5(4)]DDAA[Phe(3-CF3)]A[S8]F[Bta]Q-NH2 (staple 1-4, 4-11; not fully specified; printed as Ac-PL3-Asp-Ala-B5-Asp-Asp-Ala-Ala-3F3MeF-Ala-S8-Phe-BztA-Gln-NH2, Stapled peptide) [I-375] | 3010 nM
Ac-[αAllylPro]DA[B5(9)]DDAA[Phe(3-CF3)]Q[S8]F[Bta]Q-NH2 (staple 1-4, 4-11; not fully specified; printed as Ac-PL3-Asp-Ala-B5-Asp-Asp-Ala-Ala-3F3MeF-Gln-S8-Phe-BztA-Gln-NH2, Stapled peptide) [I-378] | 1340 nM
Ac-[αAllylPro]DA[B5(4)]DDAA[Phe(3-CF3)]A[S8]F[Bta]Q-NH2 (staple 1-4, 4-11; not fully specified; printed as Ac-PL3-Asp-Ala-B5-Asp-Asp-Ala-Ala-3F3MeF-Ala-S8-Phe-BztA-Gln-NH2, Stapled peptide) [I-374] | 3010 nM
Ac-[αAllylPro]DA[B5(4)]DDAA[Phe(3-CF3)]A[S8]F[Bta]Q-NH2 (staple 1-4, 4-11; not fully specified; printed as Ac-PL3-Asp-Ala-B5-Asp-Asp-Ala-Ala-3F3MeF-Ala-S8-Phe-BztA-Gln-NH2, Stapled peptide) [I-376] | 1320 nM
Ac-[αAllylPro]DA[B5(4)]DDAA[Phe(3-CF3)]A[S8]F[Bta]Q-NH2 (staple 1-4, 4-11; not fully specified; printed as Ac-PL3-Asp-Ala-B5-Asp-Asp-Ala-Ala-3F3MeF-Ala-S8-Phe-BztA-Gln-NH2, Stapled peptide) [I-377] | 1320 nM
Ac-[αAllylPro]DA[B5(9)]DDAA[Phe(3-CF3)]Q[S8]F[Bta]Q-NH2 (staple 1-4, 4-11; not fully specified; printed as Ac-PL3-Asp-Ala-B5-Asp-Asp-Ala-Ala-3F3MeF-Gln-S8-Phe-BztA-Gln-NH2, Stapled peptide) [I-379] | 1340 nM

Further lines, results first:

EC50 | Binder
3420 nM | Ac-[αAllylPro]DA[B5(9)]DEAA[23FF]V[S8]F[Bta]Q-NH2 (staple 1-4, 4-11; also: earlier eluting HPLC isomer, E/Z not assigned, Stapled peptide) [I-390]
5000 nM | Ac-[αAllylPro]DA[B5(9)]DEAAFV[S8][23FF][Bta]Q-NH2 (staple 1-4, 4-11; also: earlier eluting HPLC isomer, E/Z not assigned, Stapled peptide) [I-388]
552 nM | Ac-[αAllylPro]DA[B5(9)]DDAA[Phe(3-CF3)]Q[S8]F[Bta]Q-NH2 (staple 1-4, 4-11; not fully specified; printed as Ac-PL3-Asp-Ala-B5-Asp-Asp-Ala-Ala-3F3MeF-Gln-S8-Phe-BztA-Gln-NH2, Stapled peptide) [I-380]
3650 nM | XDAXDNAAFVXFXQ (not fully specified; Ac-PL3-Asp-Ala-B5-Asp-Asn-Ala-Ala-Phe-Val-S8-3FF-BztA-Gln-NH2: N-terminal acetyl, C-terminal amide; non-natural PL3(1), B5(4), S8(11), 3FF(12), BztA(13); staples PL3-B5 and B5-S8, Stapled peptide) [I-381]
5000 nM | Ac-[αAllylPro]DA[B5(9)]DEAAFV[S8][23FF][Bta]Q-NH2 (staple 1-4, 4-11; also: later eluting HPLC isomer, E/Z not assigned, Stapled peptide) [I-389]
2060 nM | XDAXDNAAFVXFXQ (not fully specified; Ac-PL3-Asp-Ala-B5-Asp-Asn-Ala-Ala-Phe-Val-S8-3FF-BztA-Gln-NH2: N-terminal acetyl, C-terminal amide; non-natural PL3(1), B5(4), S8(11), 3FF(12), BztA(13); staples PL3-B5 and B5-S8, Stapled peptide) [I-382]
